± gives the uncertainty stated by the source.
assay: protein stability index of a GFP-peptide fusion (yeast GPS) (PSI 1-4); higher = more stable; sorted into four equal gates, so the index is relative within each strain; conditions: doa10∆
In short: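 Tiled yeast protein peptides of 17 residues were each joined downstream of GFP, on plasmids that also express Cherry. The pooled library was maintained in yeast, and mid-log cultures in leucine-free medium were sorted into four equal gates on the GFP/Cherry ratio. Plasmids from every gate were amplified by PCR and sequenced on Illumina, with barcodes linking reads to strains. The protein stability index of a peptide is its gate-number-weighted read frequency summed over the gates.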

Row | Sequence | protein stability index
1 | LVGEYWEQLKITVVPVV [QCR6] | 1.38 ± 0.26
2 | LVGRLRKCETQKQWDDI [YCS4] | 2.21 ± 0.069
3 | LVHTQIRKTPLAQKKAH [RPL3] | 1.37 ± 0.057
4 | LVIKSGKYTLGYKSTVK [RPL30] | 2.75 ± 0.079
5 | LVSLLDENDSKKNNAAS [YAR002W/NUP60] | 3 ± 0.07
6 | LVSSASQQLLEILVTEL [RPN2] | 1.93 ± 0.059
7 | LWALLNFLLPDIFGDSE [ISW2] | 2.15 ± 0.05
8 | LWDVATGETYQRFVGHK [ASC1] | 2.98 ± 0.19
9 | LWSIHPSRQFDHYESNQ [SRB8] | 1.75 ± 0.074
10 | LYAERVQDRGLSAVAQA [RPS3] | 3.09 ± 0.069
11 | LYDHWDKYHEQWIKFLL [SSN8] | 3.16 ± 0.2
12 | LYFEIIHGVLKNVDREV [FAS2] | 3.04 ± 0.09
13 | LYGKRFFPYYVHTIIAG [PRE7] | 1.15 ± 0.032
14 | LYKFQNFQDLSYLSETL [YML103C/NUP188] | 2.94 ± 0.091
15 | LYKTFFKRNAVFVGTIF [QCR9] | 1.78 ± 0.075
16 | LYNFLHKYVLTLQLYMV [RGR1] | 2.04 ± 0.058
17 | LYPCYFDINRSHKEGRR [SEC65] | 1.15 ± 0.17
18 | LYQDMAARHRARFRSIH [RPL20A] | 2.81 ± 0.071
19 | LYRSIESGEFDFDLFKE [YJL039C/NUP192] | 3.1 ± 0.12
20 | MAKDIEISASESKFILE [RRP45] | 3.17 ± 0.092
21 | MALKKNTHNKSTKRVTK [POP7] | 2.71 ± 0.1
22 | MAPVKSQESINQKLALV [RPL30] | 2.05 ± 0.11
23 | MAQRTLKNKYESYDAAL [FAS2] | 3.147 ± 0.019
24 | MASGSTTFTKVAAKWNT [PRP8] | 2.58 ± 0.072
25 | MATPSFGNSSPQLTFTH [YML103C/NUP188] | 2.75 ± 0.12

Row | Sequence | protein stability index
26 | MEADPSLHPLFEQFEKF [RPN9] | 2.82 ± 0.073
27 | MEDKISEFLNVPFESLQ [YIL149C/MLP2] | 3.18 ± 0.09
28 | MEDPPSTVSGELNDNPA [YMR153W/NUP53] | 2.45 ± 0.081
29 | MELLTQMDGFDNLGQTK [RPT4] | 3.53 ± 0.09
30 | MERFSVLCNSNISKSRA [RRP6] | 2.42 ± 0.066
31 | MESIGSDILTAEKMRGN [RRP4] | 3.1 ± 0.13
32 | MFGIRSGNNNGGFTNLT [YDL088C/ASM4] | 3.23 ± 0.085
33 | MFIEEPTRMVRVAKGSG [SRP54] | 3.09 ± 0.19
34 | MFTATMTPVIEKIAAGY [PRP28] | 2.2 ± 0.13
35 | MGAINNNIPSLTSFAEE [SNF6] | 3.2 ± 0.13
36 | MGRMHSAGKGISSSAIP [RPS13] | 2.74 ± 0.043
37 | MHRKSLRRASATVPSAP [YAR002W/NUP60] | 2.64 ± 0.071
38 | MIELICSSATVPKHMLD [AAR2] | 1.85 ± 0.082
39 | MIFETIVDGKLKTEKIF [FAS1] | 1.8 ± 0.07
40 | MKESVVEINSSESDLDE [ESC2] | 3.35 ± 0.071
41 | MKVEVDSFSGAKIYPGR [RPL24B] | 3.11 ± 0.18
42 | MKYIQTEQQIEIPEGVT [RPL9B] | 2.4 ± 0.059
43 | MLGEDEGNTVLEKGNNP [SWP82] | 3.67 ± 0.13
44 | MLPGSSNGGGKVKPIRG [RPO31] | 3 ± 0.073
45 | MLRTVTSKTVSNQFKRS [COR1] | 3.11 ± 0.15
46 | MLSFCPSCNNMLLITSG [RPC11] | 1.26 ± 0.082
47 | MLVDLNVPWPQNSYADK [RPP1] | 1.59 ± 0.27
48 | MLWGGASMLGLFVFTEG [QCR10] | 1.96 ± 0.14
49 | MNAGGLFGAKPQNTTAT [YGR119C/NUP57] | 2.43 ± 0.049
